The values that follow come from US20190298769A1.

This assay concerns the target 4-1BB receptor on Jurkat cells that over express 4-1BB/NFκB/Luc (UniProt Q07011). The assay can be described thus: cell-based or functional assay.
UniProt Q07011, sequence (Q07011 24-255 limits assumed): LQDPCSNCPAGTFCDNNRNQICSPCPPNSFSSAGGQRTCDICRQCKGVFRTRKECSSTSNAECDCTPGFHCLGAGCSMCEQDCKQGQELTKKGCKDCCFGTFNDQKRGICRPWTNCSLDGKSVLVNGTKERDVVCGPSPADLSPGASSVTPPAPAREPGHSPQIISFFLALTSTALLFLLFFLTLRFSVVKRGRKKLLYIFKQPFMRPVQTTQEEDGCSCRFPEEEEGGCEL

“4-1BBL construct (human extracellular 4-1BBL - 4-1BBL linker - GPA) on the surface of engineered erythroid cells (ligand)” displayed an NFκB activation (luciferase activity of Jurkat cells that over express 4-1BB/NFκB/Luc) of 80 to 100 fold and an NFκB activation relative to the agonistic 4-1BB monoclonal antibody of 15 fold.
